In the assay the target is T1, His-D6PK (Arabidopsis thaliana, UniProt Q9FG74 1-498).
T1 sequence (looked up): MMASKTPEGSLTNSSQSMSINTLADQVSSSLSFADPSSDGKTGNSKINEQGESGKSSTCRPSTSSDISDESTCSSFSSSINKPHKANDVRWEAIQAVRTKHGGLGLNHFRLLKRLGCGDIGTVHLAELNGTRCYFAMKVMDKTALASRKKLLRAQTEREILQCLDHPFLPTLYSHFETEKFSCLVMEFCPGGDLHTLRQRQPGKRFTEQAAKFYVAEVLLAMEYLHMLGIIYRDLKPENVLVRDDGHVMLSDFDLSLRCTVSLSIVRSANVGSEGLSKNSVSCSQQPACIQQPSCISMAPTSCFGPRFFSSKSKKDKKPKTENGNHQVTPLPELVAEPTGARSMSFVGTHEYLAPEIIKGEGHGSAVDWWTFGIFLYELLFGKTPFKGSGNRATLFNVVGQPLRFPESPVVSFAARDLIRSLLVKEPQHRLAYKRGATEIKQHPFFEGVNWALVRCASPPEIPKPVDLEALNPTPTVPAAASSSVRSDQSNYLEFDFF
The assay can be described thus: pull-down.

The values below come from paper doi:10.1101/755504 (bioRxiv, 2019).

B1: GST-PDK1.1 (enzyme, Arabidopsis thaliana, UniProt Q9XF67 1-491, looked up)
chain: MLAMEKEFDSKLVLQGNSSNGANVSRSKSFSFKAPQENFTSHDFEFGKIYGVGSYSKVVRAKKKETGTVYALKIMDKKFITKENKTAYVKLERIVLDQLEHPGIIKLYFTFQDTSSLYMALESCEGGELFDQITRKGRLSEDEARFYTAEVVDALEYIHSMGLIHRDIKPENLLLTSDGHIKIADFGSVKPMQDSQITVLPNAASDDKACTFVGTAAYVPPEVLNSSPATFGNDLWALGCTLYQMLSGTSPFKDASEWLIFQRIIARDIKFPNHFSEAARDLIDRLLDTEPSRRPGAGSEGYVALKRHPFFNGVDWKNLRSQTPPKLAPDPASQTASPERDDTHGSPWNLTHIGDSLATQNEGHSAPPTSSESSGSITRLASIDSFDSRWQQFLEPGESVLMISAVKKLQKITSKKVQLILTNKPKLIYVDPSKLVVKGNIIWSDNSNDLNVVVTSPSHFKICTPKKVLSFEDAKQRASVWKKAIETLQNR
Regarding B1, the binding result is recorded as “binds”.
